The nanobody polyreactivity screen of Harvey et al. (2022)

Assay: yeast display, Sf9 membrane polyspecificity reagent, FACS + sequencing; frameworks hold sequencing errors
Procedure, shortened: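 Galactose induction of a Saccharomyces cerevisiae BJ5465 synthetic nanobody display library ran 36–48 hours. The cells were then stained for 1 hour at 4 °C with 10% biotinylated, detergent-solubilized Sf9 membrane reagent, pulled down on streptavidin microbeads and FACS-sorted into low and high (top ~1%) gates on expression and reagent-binding fluorescence. Labels for polyreactivity follow the gate of origin.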

| Sequence | polyreactivity (PSR sort gate) |
| --- | --- |
| QVPLVESGVGLVQAGGSLRLSCAASGSTISYYYMGWYRQAPGKEREFVAAIRRRGSSTYYADSVKGRFTISRDNAKNTVYLQINSLKPEDTAVYYCAKRTIAGRGRQYDYWGQGTQVSVSS | high polyreactivity |
| QVQLVESGGGLVQAGGSLRLSCAASGLIFYDNLGWYRQAPGKERELVAAISSSGGSTSYADSVKGRFTISRDNAKNTVYLQMNSLKPEDTAVYYCAADSYPAYLGFVGFDYWGQGTQVTVSS | low polyreactivity |
| QVQLVESGGGLVQAGGSLRLSCAASGFTFTTNAMGWYRQAPGKERELVAAISKRGTRTYYADSVKGRFTISRDNAKNTVYLQMNSLKPEDTAVYYCAAASVAGDKFDYWGQGTQVTVSS | high polyreactivity |
| QVQLVESGGGLVQAGGSLRLSCDASGRIFSVYAMGWYRQEPGKEREFVSAISRGGSTNYADSVNGRFTISRDNAKYTVYLQKNSLKPEDTAVYYWGASSLPNYYYRHYYLYEYWGQGTQVTVSS | low polyreactivity |
| QVQLVESGGGLVQAGGSLRLSCAASGFIFRFNAMGWYRQAPGKERELVAGITWSGGSTYYADSVKGRFTISRDNAKNTVYLQMNSLKPEDTAVYYCDADNPYLGRKFDYWGQGTQVTVSS | high polyreactivity |
| QVQLVESGGGLVQAGGSLRLSCAASGSIFEYNAMGWYRQAPGKERELVAAISWSSGTTYYADSVKGRFTISRDNAKNTVYLQMNSLKPEDTAVNYCIAGRYGKDSDYWGQGTQVTVSS | low polyreactivity |
| QVQLVESGGGLVQAGGSLRLSCAASGRTFVSNAMGWYRQAPGKERELVAGINWTDDSTYYADSVKGRFTISRDNAKNTVYLQMNSLKPEDTAVYYCAADSWEFAWPRFDYWGQGTQVTVSS | low polyreactivity |
| QVQLVESGGGLVQAGGSLRLSCAATGTTFGYYTMGWYRQAPGKERELDAAISWSGSSTYYADSVKGRFTISRDTAKNTVYLQMNSLKPEDTAVYYCNARGGARAWYFAYKYWGQGTQVTVSS | high polyreactivity |
| QVQLVESGGGLVHAGGSLRLSCAASGRIFQHYAMGWYRKAPGKERELVAAISWRGGSTYYADSVKGRFTISRDNAKNTVYLQMNSLIPEDTAVYYCAAGYPGRNPGFDYWGQGNQVTVSS | high polyreactivity |
| QVQLVESGGGLVQAGGSLRLSCAASGSIFARNAMGWYRQAPGKERELVAVITTGGRTYYADSVKGRFTISRDNAKNTVYLQMNSLKPEDTAVYYCATRVIYGQSGGYWGQGTQVTVSS | high polyreactivity |
| QVQLVESVGGLVQAGGSLRLSCDASGRIFVKYAMGGSRQAPGKERELVASITSGGRTNYADSVKGRFTISRDNAKNTVYLQMNSLKPEDTAVYYCAADARQSRYNYWGQGTQVTVSS | high polyreactivity |
| QVQLVESGGGLVQAGGSLRLSCAASGRTFDYNAMGWYRQAPGKERELVAAISSSGGTTYYADPVKGRFTISRDNAKNTVYLQMNSLKPEDTAVYYCNADVGHKYKRRVSLYYWGQGTQVTVSS | low polyreactivity |
| QFQLVESGGGLVQAGGSLRLSCAAYGSIFMYYAMGWYIQAPGKERELVAAIRRGGNTNYADSVKGRFTISRDNAKNTVYLQMNSLKPEDTAVYYCAAAQYSRYSRVPNYYAGTYYYWGQGTQVTVSS | low polyreactivity |
| QVQHVESGGGLVQAGGSLRLSCAASGRTFSANAMGWDRQAPGKEMELVATISSGGRTNYADSVKGRFTISRDNAKNTVYLQMNSLKPEDTAVYYCAKRGPYKRWYGRYDYWGQGTQVTVSS | low polyreactivity |
| QVQLVESGGGLVQAGGSLRLSCAASGSIFEYNDMGWYRQAPGKERELVAAITTGGRTSYADSVKGRFTISRDNAKNTVYLQMNSLKPEDTAVYYCAAEPPAEFWTDRLVDYYVGYDYWGQGTQVTVSS | low polyreactivity |
| QVQLVESGGGLVQAGGSLRLSCAASGRTFFPYAMGWYRPAPGKERELVAAITRSGSTYYADSVKGRFTISRDNAKNTVYLQMNSLKPEDTAVYYCAADYSPWRSDFDYWGQGTQVTVSS | low polyreactivity |
| QVQLVESGGGLVQAGGSLRLSCAASGRTFLYNAMGWYRQAPGKERELVAAISWNGGSTYYADSVKGRFTISRDNAKNTVYLQMNSLKPEDTAVYYCNAVYRPRVGRRFPTGYDYWGQGTQVTVSS | high polyreactivity |
| QVQLVDSGGGIVQAGGSLRLSCPASGITFPKYAMGWYRQAPGKERELVAAITKSSGSTYYADSVKGRFTISRDNAKNTVYLQMKSLKPEDTAVYYCAARRVNHIRSYSYVSNYGYWGQGTQVTVSS | high polyreactivity |
| QVLLQESGGGLVQAVGSLRLGCAASGTISPAYDIGRNHLAPGREREFVAAMTYGTNSYYSDSVKGRFTMSRDNAKNTVFLKMTSLKTEDTAVFYFSATGGYNCAHDYWGQGTQVTVSS | low polyreactivity |
| QVQLVESGGGLVQAGGSLRLSCAASGITFKYYGMGWYRQAPGKERELVAAISWSGASTYYADSVKRRFTISRDNAKNTVYLQMNSLKPEDTAVYYCAAVRRRGQRGRLDYWGQGTQVTVSS | high polyreactivity |

| Sequence | polyreactivity (PSR sort gate) |
| --- | --- |
| QVQLVESGGGLVQAGCSLRLSCAASGSIFYSNAMGWYRQAPGKERELVAAITRRGGSTYYADSVKGRFTISRDNAKNTVYLQMNSLKPEDTAVYYCYADGSARTPYYYRWYRYGYWGQGTQVSVSS | high polyreactivity |
| KVQLVESGGGLVQAGGSLRLSCAASGRTFPYYVMGWYRQAHGKERELVAAIDVGGGSTYYADSVKGRFTISRDNAKNTVYLQMNSLKPEVTAVYYCAAQVDYLAHYGYWGQGTQVTVSS | low polyreactivity |
| KVQLVESGSGLVQAGGSHSISCAASGGTIACYVMGWYRPAPGKEREFVATISWSGTSTYYADSVKGRFTISRDNAKNTVDLLMYSLKPEDTAVFYCNKPGSSWPDFYSYNYWGLGTQVTVSS | low polyreactivity |
| QVQLVESGGGLVQAGGSLRLSCAASGITLGRYSMGLYRQAPGKVRELVAVISDSGGSTYYADSVKGRFTISRDNAKNTVYLQMNSLKPEYTAVYYCARRFDRYPRYYYWGQGTQVTVSS | high polyreactivity |
| QVQLVESGGGLVHAGGSLRISCAASGSTFPYYAMGWYRQAPVKERELVAAISRSGGSTYYADSVKGRFTISRDNAKNTVYLQMNRLKPEDTAVYYCNARLARWGSYEYNYWGQGTQVNVSS | low polyreactivity |
| QVQLVESGGGLVQAGGSLRLSCAASGRTFYWYAMGWYRQAPGKERELVAAIRKTDTSTYYADSVKGRFTISRDNAKNTVYLQMNSLKPEDTAVYYCAARSTYSSGKYGYKYDYWGQGTQVTVSS | high polyreactivity |
| QVQLVESGGGLVQAGGSLRLSCAASVRIFGVYAMGWYRQAPGKERELVAAITSGGSTTYADSVKGRFTISRDNAKNTVYLQMNSLKPEDTAVYYCNKEPQPFFLYGYWGQGTQVTVSS | low polyreactivity |
| QVQLVESGGGLVQAGGSLRLSCAASGSIFSYYAMGWYRQAPGKERELVAAITWSGTRTYYADSVKGRFTISRDNAKNTVYLQMNSLKPEDTAVSYCAADSSIRDAYWGQGTQVTVSS | low polyreactivity |
| QVQLVESGGGLVQAGGSLRLSCAASGSARYAMGWYRQAPGKERELVAAISRRGGSTFYADSVKGRFTISRDNAKNTVYLQMNSLKPEDTAVYYCAADGRISYDYWGQGTQVTVSS | low polyreactivity |
| QVQLVESGGGLVQAGGSLRLSCAASGRTFFKYAMGWYRQAPGKERELVATITSSGGITYADSVKGRFTISRDNAKNTVYLQMNSLKPEDTAVYYCNARVWVTHYSELNYWGQGTQLTVSS | low polyreactivity |
| QVQLVESGGGLVQAGGSLRLTCAASGSIFDRNAMGWYRQAPGTERELVAAITYRSGGTYYADSVKGRFTISRDNAKNTVYLQMNSLKPEDTSVYYCNKGYRRYKGYDYWGQGTQVTVSS | high polyreactivity |
| QVQLVESGGGLVQAGGSLRLSCAASGRTFKAYAMGWYRQAPGKEREFVAAITKRGGSTYYADSVKGRFTISRDNAKNTVYLQMNSLKPEDTAVYYCAVGLGRYTHTSVPIPSYDYWGQGTQVTVSS | high polyreactivity |
| QVQLVESGGGLDQAGGSLRLSCAASGSIFSDNVMGWYRQAPGKERELVAAIRDGDTTNYADSVKGRFTISRDNAKNTVYLQMNSLKPEDTAVYYCAAVQDSSPDYSYAYLDGDRDYWGQGTQVTVSS | low polyreactivity |
| QVQLVESGGGLVQAGGSLRLSCAASGGIFDTNAMGWYRQAPGKEREFVAAITGSGGSTYYADSVKGRFTISRDNAKNTVYLQMNSLKPEDTAVYYCAAPLSYYWVYIVRYGYDYWGQGTQVTVSS | low polyreactivity |
| QVQLVESGGGLVQAGGRLRLSCAASGSIFVPNAMGGYRQAPGKERELVAAISGIGGSTSYADSEKGRFTISRDNAKNTVDLHMNSLQQEDTAVYYCARADKLHTRGWGRWGSGSYSWGQGTQVTVSS | low polyreactivity |
| QVQLVESGGGLVQAGGSLRLSCAASGSILRLYAMGWYRQAPGNERDLVAAITYRGGRTDYADSVKGRFTISRDTAKNTVYLQLNSLKPEDTAVFYCAAGYLPSPRYSTSYLYYYWGQGTQVTVSS | high polyreactivity |
| QVQLVESGGGLVQAGGSLRLSCAASGFTFVYYVMGWYRQAPGKERELVAAINAGGGSTYYADSVKGRFTISRDNAKNTVYLQMNSLKPEDTAVYYCNARVRVRLGRKWSSYYYWGQGTQVTVSS | high polyreactivity |
| QVQLVESGGGLVQAGGSVRLSCGASGRSFQRYALGWYRQAPGTERELVAAIRWSGGATYGDSVKGRFTISRDNAKNTVYLQMNSLQPEDTAVYYCAAVDRRDPYYPKYNYWGQGTQVTVSS | high polyreactivity |
| QVQLVESGGGLVQAGGSLRLSCAASGSTFGHNAMGWYRQATGKERELVAAISKSGGRTYYADSVKGRFTISRDNAKNTVYLQMNSLKPEDTAVYYCAKDGVVGSGTLNIYDYWGQGTQVTVSS | low polyreactivity |
| QVQLVESGGGLVQAGGSLRLSCAASGSIFSGNTMGWYRQAPGKERELVAAISGGGSTNYADSVKGRFTISRDNAKNTVYLQMNSLKPEDTAVYYCAAEPDHVADSHSGYDYWGQGTQVTVSS | low polyreactivity |
